Test results from the supplement of paper PMC10567573.

B1: CDC14A (parent)
chain: GPHPKSKIENGYPLHAPEAYFPYF
B2: PPFIA4 (parent)
chain: PGVHRRYSALREESAKDWETSPLP

Variants of: B1
Test: protein stability index of a GFP-peptide fusion (GPS, HEK-293T) (PSI 1-6); higher = more stable
Settings: c terminus: a fixed tail appended
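Further: lentivirally expressed fusions sorted by FACS into six bins by GFP to DsRed ratio, PSI derived from sequencing read proportions per bin multiplied by bin number.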

Protein stability index of substitutions, site by site:
S6: P 2 | Q 2.22 | D 2.59 | H 2.63 | M 1.6 | C 1.87 | N 2.21 | W 1.88 | A 2.36 | Y 1.82 | K 2.58 | E 2.3 | L 2.22 | I 2.01 | V 2.16 | F 2.11 | T 2.15 | G 2.14 | R 2.2
E9: M 1.58 | I 2.2 | N 1.91 | K 1.44 | A 1.92 | R 1.6 | H 2.29 | V 1.81 | F 1.77 | S 2.21 | T 2.22 | W 1.77 | Q 2.02 | D 1.96 | C 2.09 | P 1.69 | L 1.76 | Y 1.64 | G 2.31
H3: V 2.41 | K 2.46 | A 2.4 | Q 2.7 | W 1.66 | L 2.19 | R 2.19 | Y 1.9 | F 2.02 | C 2.01 | N 2.54 | I 2.48 | S 2.55 | G 2.54 | E 2.46 | M 2.19 | D 2.01 | T 1.91
P2: M 2.13 | Y 1.85 | H 2.46 | Q 2.14 | G 1.74 | F 2.8 | D 2.29 | C 1.67 | S 2.33 | K 1.94 | W 2.45 | E 2.09 | N 2.1 | L 2.29 | I 2.28 | T 2.17 | V 2.41 | R 2.34 | A 2.35
G11: I 1.64 | K 2.44 | S 2.09 | N 2.07 | P 3.76 | H 2.17 | W 1.55 | V 2.03 | C 1.73 | D 2.85 | L 2.56 | Y 2.12 | R 2.5 | M 2.09 | T 1.75 | Q 2.31 | F 1.72 | A 2.41 | E 2.52
N10: M 2.31 | F 2.51 | S 2.97 | H 2.57 | V 2.06 | T 1.82 | E 2.29 | L 2.19 | W 1.89 | I 1.63 | K 2.65 | R 1.55 | Q 2.99 | Y 1.79 | P 2.52 | C 2.05 | A 2.51 | D 1.96 | G 2.18
I8: G 2.28 | W 1.77 | S 2.29 | L 2.03 | N 2.98 | T 2.48 | R 2.75 | F 2.23 | M 2.09 | C 2.45 | A 2.54 | V 2.48 | D 3.34 | Y 1.88 | H 2.37 | Q 2.7 | P 2.56 | K 2.53 | E 3.29
K5: R 2.38 | T 2.13 | W 1.92 | N 2.07 | M 1.87 | G 1.99 | L 2.37 | Y 1.66 | E 2.5 | C 2.23 | Q 2.77 | S 2.56 | D 2.08 | V 1.92 | A 2.26 | F 1.29 | I 2.06
K7: N 2.57 | M 1.91 | Y 1.84 | F 1.99 | H 2.22 | I 1.98 | P 2.72 | C 2.23 | T 2.43 | Q 1.96 | S 2.31 | L 2.06 | G 2.84 | D 2.13 | R 2.43 | E 2.27 | A 2.33 | V 2.59 | W 1.57
P4: S 1.86 | H 2.24 | Y 1.89 | I 1.91 | D 2.12 | W 2.08 | R 2.8 | V 2.84 | E 2.11 | Q 2.23 | C 2.27 | G 2.22 | L 1.51 | M 2.33 | T 2 | A 2.52 | F 2.24 | K 2.29 | N 2.48
Y12: I 2.82 | Q 2.7 | M 2.74 | H 2.99 | K 2.69 | N 3.03 | E 3.56 | A 2.99 | G 2.67 | C 2.42 | F 1.78 | L 2.46 | D 3.24
G1: F 2.01 | S 1.99 | E 2.44 | I 1.85 | T 2.7 | L 2.05 | Q 2.03 | D 2.51 | R 1.88 | C 2.1 | H 2.08 | V 1.89 | W 1.73 | N 2.56 | Y 1.51 | M 2.51 | K 1.57 | A 1.82

Variants of: B2
Test: as above
Settings: c terminus: a fixed tail appended

Protein stability index, by site and new letter:
P24: Y 3.45 | H 3.19 | Q 3.45 | M 3.97 | T 4.04 | S 3.83
T20: D 5.09 | F 2.71 | Q 4.49 | G 4.55 | Y 3.46
L10: F 4.29 | Q 3.63
P22: K 4.23 | N 4.52 | A 4.11 | I 3.48 | C 4.02 | D 4.63
E13: V 4.06 | A 3.75 | W 2.64 | C 2.38 | L 3.34 | Y 3.14 | S 3.96
W18: P 5.21 | A 4.95 | E 5.15 | H 5.23
P1: K 4.41 | T 4.16 | H 4.36
A9: F 2.91 | W 3.58 | L 4.27 | G 3.87
R6: D 4.7 | C 3.72 | M 3.82 | S 4
L23: R 4.25 | H 4.53 | V 2.13 | A 4.67
R11: Y 3.79 | V 4.21 | H 3.67
D17: N 3.98 | L 2.89 | G 3.9 | R 3.34 | Y 2.72
V3: G 4.84 | H 4.44 | L 3.66 | C 4.08
G2: K 3.98 | A 3.85 | I 4.51 | M 3.62 | V 4.16 | H 3.18
A15: L 4.12 | P 4.12 | F 3.52 | Y 3.32 | T 4.63
E19: N 3.42 | S 3.17 | I 3.41 | Y 2.37 | T 3.96 | P 3.59
E12: D 4.05 | P 3.88 | F 3.02 | L 3.45 | H 3.85
S21: R 4.03 | M 3.67 | E 4.5 | T 4.07 | N 5.33
Y7: F 4.13 | K 4.58 | R 4.6 | P 4.24 | G 4.62 | C 3.87 | L 4.18 | A 4.8
S14: F 3.63 | Y 3.46 | P 3.87 | E 4.69 | G 4.12 | D 4.92 | T 3.56
H4: V 3.8 | L 3.77 | E 4.53 | C 2.79 | W 3.15 | N 4.52 | M 4.49
S8: G 4.23 | L 3.54 | I 3.62 | Y 3.79
R5: G 3.96 | K 4.34 | Y 3.66 | T 3.91
K16: E 4.51 | T 4.5
